Laboratory results taken from the supplement of paper PMC10126150.
± gives the standard deviation of the averaged measurements.

Tested on: ATP
Assay: switch fluorescence ratio, 500 uM ATP over buffer (Cy3 cluster intensity, sum of 5 cycles each) (fold (ratio)); higher = stronger signal-on switching upon ATP binding; sequences stand for … in TCGTCGGCAGCGTCAGATGTGTATAAGAGACAGTTTTTTTTTTTTTTTTTTTTTTTTT…TC
Details: aptamer strand: ATP DNA aptamer (quencher-CACCTGGGGGAGTATTGCGGAGGAAGG + anchor), 100 nM annealed; ATP concentration: 500 uM
Method in brief: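 Values give the fluorescence ratio for each switch-domain sequence, averaged from per-cluster ratios of summed target-cycle to summed buffer-cycle Cy3 intensity. The Cy3-labelled switching-strand clusters sat on a modified Illumina MiSeq flow-cell, were annealed to 100 nM quencher-labelled ATP aptamer, and were imaged in selection buffer, then after 15 min with 500 uM ATP at 22 °C. Five cycles ran with NaOH stripping and re-annealing between them, and clusters outside 100-1000 RFU were excluded.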
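Further: ATP exposure 15 min at 22 °C before imaging.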

Sequence | switch fluorescence ratio
TTCTCGGGCT | 0.994 ± 0.031
TTCTCGGGTT | 0.99 ± 0.023
TTCTCGTTGG | 1.02 ± 0.032
TTCTCTGGGG | 1.025 ± 0.0071
TTCTGATTAT | 1 ± 0.035
TTCTGCGTGC | 1.85 ± 1.5
TTCTGGATCC | 1.02 ± 0.043
TTCTGGCTAT | 1.01 ± 0.039
TTCTGGGACT | 0.999 ± 0.021
TTCTGGGCGG | 1.02 ± 0.032
TTCTGGGGAT | 1.009 ± 0.0014
TTCTGGGGGC | 1.05 ± 0.064
TTCTGGTATA | 1.02 ± 0.024
TTCTGGTTAC | 1.059 ± 0.004
TTCTGTCCAC | 1.03 ± 0.013
TTCTGTGGCG | 1 ± 0.069
TTCTGTGTTT | 1.01 ± 0.037
TTCTGTTCGC | 1.03 ± 0.025
TTCTGTTGGT | 1.02 ± 0.087
TTCTGTTTCT | 0.995 ± 0.011
TTCTTAGCAC | 1.58 ± 0.17
TTCTTAGCTT | 0.998 ± 0.019
TTCTTATTGT | 0.975 ± 0.019
TTCTTCCTTT | 1.028 ± 0.0051
TTCTTGCGCC | 1.076 ± 0.0073

Sequence | switch fluorescence ratio
TTCTTGGACA | 0.993 ± 0.016
TTCTTGTGGG | 1.05 ± 0.057
TTCTTGTGTG | 1 ± 0.041
TTCTTTAATT | 0.963 ± 0.01
TTCTTTGGGG | 1.04 ± 0.093
TTCTTTGGGT | 0.947 ± 0.036
TTCTTTTGTT | 1 ± 0.025
TTCTTTTTGC | 0.9678 ± 0.0084
TTCTTTTTGG | 0.97 ± 0.042
TTGAAAAAGT | 0.992 ± 0.018
TTGAAAAGAT | 1.05 ± 0.04
TTGAAAATGG | 0.992 ± 0.026
TTGAAACTCG | 1.063 ± 0.0023
TTGAAATCGC | 1.01 ± 0.041
TTGAAATTGG | 0.99 ± 0.031
TTGAACGGGT | 1.07 ± 0.1
TTGAACGTTT | 0.974 ± 0.019
TTGAACTGTG | 1.02 ± 0.22
TTGAAGGATG | 0.997 ± 0.029
TTGAAGTCCG | 1.03 ± 0.026
TTGAATATCT | 1.03 ± 0.032
TTGAATATTT | 1 ± 0.014
TTGAATGGTT | 0.994 ± 0.021
TTGAATGTCA | 0.968 ± 0.019
TTGACAATGG | 0.99 ± 0.012

Sequence | switch fluorescence ratio
TTGACAGT | 0.9777 ± 0.0022
TTGACCGGGA | 1.14 ± 0.27
TTGACCTGGG | 1.1 ± 0.098
TTGACGACGG | 1.01 ± 0.048
TTGACGATTT | 1.05 ± 0.063
TTGACGGAGA | 0.993 ± 0.039
TTGACGTATA | 1.96 ± 1.2
TTGACTTGTC | 0.9991 ± 0.0069
TTGAGAAGGG | 1.04 ± 0.04
TTGAGAGCGG | 1.01 ± 0.047
TTGAGAGGGA | 0.99 ± 0.019
TTGAGAGGTT | 1.02 ± 0.039
TTGAGAGTTT | 1.04 ± 0.093
TTGAGATATG | 0.9989 ± 0.0076
TTGAGCAAGG | 1.06 ± 0.089
TTGAGCTTGT | 1.02 ± 0.027
TTGAGGACGT | 0.975 ± 0.045
TTGAGGATTG | 1 ± 0.018
TTGAGGGAAT | 0.992 ± 0.033
TTGAGGTCGT | 1.023 ± 0.0038
TTGAGGTCTT | 0.964 ± 0.024
TTGAGTAACT | 0.967 ± 0.024
TTGAGTACCG | 0.959 ± 0.022
TTGAGTACGT | 0.992 ± 0.045
TTGAGTACTA | 1.01 ± 0.022

Sequence | switch fluorescence ratio
TTGAGTATGC | 1.07 ± 0.047
TTGAGTGAGC | 0.988 ± 0.025
TTGAGTGGGT | 0.99 ± 0.042
TTGAGTGTGC | 1.02 ± 0.023
TTGAGTTTAT | 1.02 ± 0.12
TTGAGTTTGT | 0.977 ± 0.015
TTGATAACAA | 1.04 ± 0.036
TTGATAGAAA | 1.01 ± 0.038
TTGATAGCTT | 0.998 ± 0.018
TTGATAGGGG | 1.01 ± 0.031
TTGATATAAT | 0.981 ± 0.014
TTGATATCGG | 0.979 ± 0.023
TTGATATGGT | 0.997 ± 0.022
TTGATCGATG | 0.9886 ± 0.0068
TTGATCGCTC | 1.82 ± 1
TTGATCTGTT | 0.972 ± 0.021
TTGATGAAGA | 1.01 ± 0.036
TTGATGCCCA | 0.97 ± 0.023
TTGATTATAT | 1.02 ± 0.012
TTGATTTGTC | 0.988 ± 0.011
TTGCAAGAGA | 1.022 ± 0.0082
TTGCAAGGGC | 1.08 ± 0.074
TTGCAATTGG | 2.56 ± 2
TTGCACCGTT | 1.01 ± 0.038
TTGCACGCCT | 1.01 ± 0.024

Sequence | switch fluorescence ratio
TTGCACGGTC | 1.03 ± 0.085
TTGCAGACTT | 1.05 ± 0.072
TTGCAGGGGA | 1.3 ± 0.38
TTGCAGGTGT | 1.85 ± 0.47
TTGCAGTGTT | 1.06 ± 0.098
TTGCATACGT | 1.61 ± 0.76
TTGCATTTGG | 1.01 ± 0.088
TTGCATTTGT | 1 ± 0.03
TTGCCAAATT | 1.12 ± 0.13
TTGCCGCACG | 1.15 ± 0.024
TTGCCGGCTC | 1.03 ± 0.029
TTGCCTGCGG | 0.999 ± 0.0067
TTGCCTGTAT | 0.9731 ± 0.0073
TTGCGACACC | 1.06 ± 0.042
TTGCGCTACG | 1.01 ± 0.011
TTGCGCTCGT | 0.993 ± 0.011
TTGCGGCCTT | 1.09 ± 0.081
TTGCGGCGCT | 1.01 ± 0.043
TTGCGGCGGT | 0.983 ± 0.033
TTGCGGGTGA | 1.01 ± 0.059
TTGCGGTCGT | 1.002 ± 0.0023
TTGCGGTGGG | 1.03 ± 0.018
TTGCGTCATT | 1.03 ± 0.016
TTGCGTGTGA | 1.01 ± 0.028
TTGCGTTAGG | 1.04 ± 0.012

Sequence | switch fluorescence ratio
TTGCGTTATC | 1.2 ± 0.27
TTGCGTTGCG | 0.9685 ± 0.0036
TTGCGTTGGC | 0.984 ± 0.043
TTGCTACACG | 1.04 ± 0.02
TTGCTACTCG | 1.62 ± 0.73
TTGCTATCTT | 0.983 ± 0.052
TTGCTATGGG | 0.978 ± 0.017
TTGCTATGTG | 0.979 ± 0.015
TTGCTCAAGC | 0.999 ± 0.068
TTGCTCGAAA | 0.987 ± 0.075
TTGCTGATTC | 0.9811 ± 0.0067
TTGCTGGGGG | 1.01 ± 0.059
TTGCTGTTAC | 1.15 ± 0.15
TTGCTGTTAG | 0.995 ± 0.0074
TTGCTGTTTC | 1 ± 0.067
TTGCTTAAGG | 0.997 ± 0.026
TTGCTTCAGC | 0.994 ± 0.097
TTGCTTGAGC | 1.006 ± 0.0092
TTGCTTGGAA | 0.992 ± 0.026
TTGCTTGGGA | 1.04 ± 0.014
TTGCTTTGTG | 1 ± 0.042
TTGCTTTTGC | 1 ± 0.023
TTGCTTTTGT | 1.02 ± 0.025
TTGCTTTTTT | 0.992 ± 0.013
TTGGAAAATG | 1.02 ± 0.037

Sequence | switch fluorescence ratio
TTGGAAGGGT | 1.01 ± 0.031
TTGGAATAAA | 1.02 ± 0.015
TTGGAATCGA | 1.06 ± 0.035
TTGGACCGTG | 0.973 ± 0.069
TTGGACGGTA | 1.06 ± 0.1
TTGGACTCCG | 1.14 ± 0.15
TTGGACTCTT | 0.977 ± 0.038
TTGGAGAGGG | 1.06 ± 0.058
TTGGAGATAT | 1.07 ± 0.13
TTGGAGCACG | 1.03 ± 0.049
TTGGAGGACA | 1.06 ± 0.019
TTGGAGGCGT | 0.9814 ± 0.0057
TTGGAGGGGC | 1 ± 0.071
TTGGAGGTCG | 1.03 ± 0.019
TTGGAGTCTG | 0.994 ± 0.015
TTGGAGTTTG | 1.02 ± 0.051
TTGGATAGCG | 0.982 ± 0.017
TTGGATATTT | 1 ± 0.015
TTGGATCGCA | 0.985 ± 0.017
TTGGATGAAG | 0.982 ± 0.022
TTGGATGACA | 1.02 ± 0.031
TTGGATGTGA | 0.9622 ± 0.0052
TTGGATTAGG | 1.01 ± 0.024
TTGGATTGTT | 1.04 ± 0.025
TTGGATTTAT | 1.011 ± 0.0093

Sequence | switch fluorescence ratio
TTGGCACCCG | 1.04 ± 0.034
TTGGCCGCAT | 1.24 ± 0.09
TTGGCCGTAG | 1.01 ± 0.028
TTGGCGAAGG | 0.982 ± 0.045
TTGGCGCCGT | 0.998 ± 0.044
TTGGCGCGGC | 1.1 ± 0.063
TTGGCGCTGT | 0.971 ± 0.0017
TTGGCGGGAT | 1.03 ± 0.017
TTGGCGGTGG | 1.08 ± 0.26
TTGGCGTCAA | 1.36 ± 0.51
TTGGCTCGCA | 1.11 ± 0.15
TTGGGAAAAT | 1.01 ± 0.05
TTGGGAACGT | 1 ± 0.11
TTGGGAAGCG | 1.001 ± 0.0093
TTGGGACAAA | 1.05 ± 0.061
TTGGGACGTC | 1.02 ± 0.048
TTGGGACTTA | 1.01 ± 0.03
TTGGGAGAAT | 1.02 ± 0.09
TTGGGAGGTG | 1.05 ± 0.051
TTGGGATACG | 1.18 ± 0.23
TTGGGATTTT | 1.01 ± 0.033
TTGGGCAGGG | 0.982 ± 0.036
TTGGGCGGGG | 1.03 ± 0.043
TTGGGCGGGT | 0.994 ± 0.041
TTGGGCGGTG | 1.01 ± 0.018
